Data on one substance can be found in patent publication US20160083712A1.

This experiment concerns the target CSN5 WT, soluble MPN domain construct of Example 2 (Homo sapiens). The experiment is described as follows: ITC.

CSN5 WT, soluble MPN domain construct of Example 2 (Homo sapiens), sequence (O35864 1-257 limits assumed): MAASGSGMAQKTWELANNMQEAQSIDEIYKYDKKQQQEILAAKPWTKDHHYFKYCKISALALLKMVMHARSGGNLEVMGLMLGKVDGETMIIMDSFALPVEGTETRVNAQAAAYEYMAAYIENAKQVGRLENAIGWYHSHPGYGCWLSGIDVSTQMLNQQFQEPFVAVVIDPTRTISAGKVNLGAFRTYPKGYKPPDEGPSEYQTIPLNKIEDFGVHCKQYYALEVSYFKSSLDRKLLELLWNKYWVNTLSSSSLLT

As usually defined, the Kd is the equilibrium constant for the complex coming apart. Read a low Kd as higher affinity. “CSN6, soluble MPN domain construct of Example 2 (from UniProt Q7L5N1 31-211)” returned a Kd of 1 to 5 µM.
